The values that follow come from PMC6250708, “Arabidopsis thaliana DGAT3 is a [2Fe-2S] protein involved in TAG biosynthesis” (Scientific Reports, 2018).

This data set concerns the molecule itself. In words: SEC; Superdex 200 10/300 GL, 4 °C, 100 mM triethanolamine pH 7.5, 300 mM NaCl, 5% glycerol, 1% n-octyl-β-D-glucopyranoside, 1 mM TCEP; column calibrated with Bio-Rad gel filtration standard; oligomer size assumes a globular protein.

B1: Δ46AtDGAT3 (Arabidopsis thaliana acyl-CoA:diacylglycerol acyltransferase 3 lacking the putative chloroplast transit peptide) (domain or fragment, UniProt Q9C5W0 47-360, looked up)
chain: CNNEFADKGHVNYYIEPTRCGEEKEKVKVMEKEKKALKKKAKVLKSLSKNLDMFSSIGFGLDPEAGLVGEIQTKTISEATEILVKQLEQLKAEEKILKKQRKEEKAKAKAMKKMTEMDSESSSSSESSDSDCDKGKVVDMSSLRNKAKPVLEPLQPEATVATLPRIQEDAISCKNTSEALQIALQTSTIFPSMANPGQTLKTVEAVSVVGLPLNRVEVCMGGKCKRSGGALLLDEFQRAMTGFEGSAVACKCMGKCRDGPNVRVVKETDAVMTDSVRTPSKTLCVGVGLQDVETIVTSFFDEECSREGLGSVSY
notes: AtDGAT3 (At1g48300), Arabidopsis thaliana, 360-residue protein of the revised TAIR annotation (GenBank AEE32272); the 46 N-terminal residues (putative chloroplast transit peptide predicted by ChloroP 1.1) removed; calculated mass of the His-tagged protein 35.4 kDa; Cloned NdeI/XhoI into pET-32b(+), in frame with a C-terminal 6xHis tag; the NdeI site of the forward primer supplies a start …
In general, stoichiometry N refers to the number of molecules, sites or subunits per partner or assembly. On to B1, for which the “stoichiometry N” value was found to be 3.
